For one molecule, Kd, koff and kon results are on record in US20250281536A1 (published 2025).

This test addresses T1, Human CD4-Fc (human, UniProt P01730 26-390).
T1 construct: not shown: Fc
Kind of test: BLI; human CD4-Fc captured; binder-mouse Fc homodimer at 125 nM. On the technique in general: BLI is a label-free optical method that tracks binding on a fibre tip over time.

B1: Binder 279 expressed as homodimer with mouse Fc (Fc fusion)
chain: QVQLVQSGAEVKKPGASVKVSCKASGGTFSSYAISWVRQAPGQGLEWMGWINPNSGGTNYAQKFQGRVTMTRDTSTSTVYMELSSLRSEDTAVYYCARDGYSGSYSDWGQGTLVTVSSGGGGSGGGGSGGGGSDIVMTQSPDSLAVSLGERATINCKSSQSVLSSSYNKNYLAWYQQKPGQPPKLLIYWASTRESGVPDRFSGSGSGTDFTLTISSLQAEDVAVYYCQQYYSTPWTFGQGTKVEIK
notes: not shown: mouse Fc
For B1, binding was put at a Kd of 5 nM, the koff turned out to be 0.00021 s⁻¹ and the association rate constant (kon) is 41700 M⁻¹ s⁻¹.

One may read the Kd as a measure of binding affinity in units of concentration. A lower Kd goes with higher affinity. The term koff denotes the first-order rate constant of dissociation. Read a low koff as a long-lived complex. What is called kon is a measure of how fast the partners come together.
